Laboratory results from patent publication US20220204611A1 (Amgen, published 2022).
Positions count from the first letter of the chain named.

T1: human TREM2 (human, UniProt Q9NZC2 19-174, limits assumed)
T1 sequence: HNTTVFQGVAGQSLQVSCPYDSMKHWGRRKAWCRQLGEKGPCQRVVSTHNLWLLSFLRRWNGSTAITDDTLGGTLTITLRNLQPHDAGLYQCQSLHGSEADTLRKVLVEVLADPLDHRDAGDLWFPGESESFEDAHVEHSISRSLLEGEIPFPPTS

B1: V6 (Fab, V domains shown)
VH: EVQLVQSGAEVKKPGESLKISCKGSGYSFTSMWIAWVRQMPGKGLEWMGIIYPGDSDTRYSPSFQGQVTISADKSISTAYLQWSSLKASDTAMYFCARQRTFYYDSSDYFDYWGQGTLVTVSS
VL: DIQMTQSPSSVSASVGDRVTITCRASQGISSWLAWYQQKPGKAPKLLIYAASSLQNGVPSRFSGSGSGTDFTLTISSLQPEDFATYFCQQADSFPRTFGQGTKLEIK
B2: V21 (Fab, V domains shown)
VH: B1 VH with M32Y, Y109F
VL: B1 VL
B3: V30 (Fab, V domains shown)
VH: B1 VH with Y27S, M32Y
VL: B1 VL
B4: V59 (Fab, V domains shown)
VH: B1 VH with M32Y
VL: B1 VL with Q89M
B5: V44 (Fab, V domains shown)
VH: B1 VH with M32Y, G54S
VL: B1 VL
B6: V54 (Fab, V domains shown)
VH: B1 VH with M32Q
VL: B1 VL
B7: V22 (Fab, V domains shown)
VH: B1 VH with M32Y
VL: B1 VL with A50R
B8: V34 (Fab, V domains shown)
VH: B1 VH with M32Y
VL: B1 VL with N56D
B9: V67 (Fab, V domains shown)
VH: B1 VH with M32Y, I50M
VL: B1 VL
B10: V57 (Fab, V domains shown)
VH: B1 VH with M32Y
VL: B1 VL with R24A
B11: V35 (Fab, V domains shown)
VH: B1 VH with M32Y
VL: B1 VL with D92Y
B12: V19 (Fab, V domains shown)
VH: B1 VH with M32S
VL: B1 VL
B13: V18 (Fab, V domains shown)
VH: B1 VH with M32Y, W33H
VL: B1 VL
B14: V42 (Fab, V domains shown)
VH: B1 VH with M32A
VL: B1 VL
B15: V46 (Fab, V domains shown)
VH: B1 VH with M32Y
VL: B1 VL with S53T
B16: V56 (Fab, V domains shown)
VH: B1 VH with M32Y, S61Q
VL: B1 VL
B17: V7 (Fab, V domains shown)
VH: B1 VH with M32E
VL: B1 VL
B18: V70 (Fab, V domains shown)
VH: B1 VH with M32Y
VL: B1 VL with S52G
B19: V68 (Fab, V domains shown)
VH: B1 VH with M32Y, Y103R
VL: B1 VL
B20: V58 (Fab, V domains shown)
VH: B1 VH with M32Y
VL: B1 VL with A50K
B21: V9 (Fab, V domains shown)
VH: B1 VH with M32Y, T101G
VL: B1 VL
B22: V23 (Fab, V domains shown)
VH: B1 VH with M32Y
VL: B1 VL with R96L
B23: V10 (Fab, V domains shown)
VH: B1 VH with M32Y
VL: B1 VL with A50S
B24: V32 (Fab, V domains shown)
VH: B1 VH with M32Y, P62N
VL: B1 VL
B25: V8 (Fab, V domains shown)
VH: B1 VH with M32Y, R59K
VL: B1 VL
B26: V33 (Fab, V domains shown)
VH: B1 VH with M32Y, Y104G
VL: B1 VL
B27: V78 (Fab, V domains shown)
VH: B1 VH with S28R, M32Y
VL: B1 VL
B28: V43 (Fab, V domains shown)
VH: B1 VH with M32Y, D57G
VL: B1 VL
B29: V69 (Fab, V domains shown)
VH: B1 VH with M32Y
VL: B1 VL with W32Y
B30: V47 (Fab, V domains shown)
VH: B1 VH with M32Y
VL: B1 VL with R96M
B31: V55 (Fab, V domains shown)
VH: B1 VH with M32Y, R59I, F64H
VL: B1 VL
B32: V45 (Fab, V domains shown)
VH: B1 VH with M32Y
VL: B1 VL with W32F
B33: V66 (Fab, V domains shown)
VH: B1 VH with Y27T, M32Y
VL: B1 VL
B34: V20 (Fab, V domains shown)
VH: B1 VH with M32Y, I50R
VL: B1 VL
B35: V71 (Fab, V domains shown)
VH: B1 VH with M32Y
VL: B1 VL with F94E
B36: V11 (Fab, V domains shown)
VH: B1 VH with M32Y
VL: B1 VL with D92A
B37: V31 (Fab, V domains shown)
VH: B1 VH with M32Y, D57E
VL: B1 VL

What follows are binders tested against T1, human TREM2 (assay: yeast-displayed Fab FACS, 2nd screen 100 nM).
In the case of B1, the “binding signal fold over 6E7 parental” value is reported as 0.56 fold. For B2, the “binding signal fold over 6E7 parental” value was 0.68 fold. With B3 the “binding signal fold over 6E7 parental” value was 0.72 fold. In the case of B4, the “binding signal fold over 6E7 parental” value is reported as 0.6 fold. With B5 the “binding signal fold over 6E7 parental” value was 0.52 fold. For B6, the “binding signal fold over 6E7 parental” value was 0.54 fold. With B7 the “binding signal fold over 6E7 parental” value was 0.71 fold. In the case of B8, the “binding signal fold over 6E7 parental” value is reported as 1.02 fold. In the case of B9, the “binding signal fold over 6E7 parental” value is reported as 0.84 fold. In the case of B10, the “binding signal fold over 6E7 parental” value is reported as 0.85 fold. B11 was tested, and the “binding signal fold over 6E7 parental” value was 0.29 fold. B12 was tested, and the “binding signal fold over 6E7 parental” value was 0.48 fold. In the case of B13, the “binding signal fold over 6E7 parental” value is reported as 0.42 fold. For B14, the “binding signal fold over 6E7 parental” value was 0.41 fold. B15 was tested, and the “binding signal fold over 6E7 parental” value was 0.96 fold. With B16 the “binding signal fold over 6E7 parental” value was 0.59 fold. With B17 the “binding signal fold over 6E7 parental” value was 0.32 fold. With B18 the “binding signal fold over 6E7 parental” value was 0.84 fold. In the case of B19, the “binding signal fold over 6E7 parental” value is reported as 0.43 fold. In the case of B20, the “binding signal fold over 6E7 parental” value is reported as 0.68 fold. In the case of B21, the “binding signal fold over 6E7 parental” value is reported as 0.54 fold. B22 was tested, and the “binding signal fold over 6E7 parental” value was 0.4 fold. In the case of B23, the “binding signal fold over 6E7 parental” value is reported as 0.7 fold. B24 was tested, and the “binding signal fold over 6E7 parental” value was 0.89 fold. For B25, the “binding signal fold over 6E7 parental” value was 0.77 fold. In the case of B26, the “binding signal fold over 6E7 parental” value is reported as 0.34 fold. With B27 the “binding signal fold over 6E7 parental” value was 1.11 fold. In the case of B28, the “binding signal fold over 6E7 parental” value is reported as 0.33 fold. In the case of B29, the “binding signal fold over 6E7 parental” value is reported as 0.4 fold. In the case of B30, the “binding signal fold over 6E7 parental” value is reported as 0.47 fold. In the case of B31, the “binding signal fold over 6E7 parental” value is reported as 0.66 fold. For B32, the “binding signal fold over 6E7 parental” value was 0.53 fold. With B33 the “binding signal fold over 6E7 parental” value was 0.74 fold. With B34 the “binding signal fold over 6E7 parental” value was 0.52 fold. In the case of B35, the “binding signal fold over 6E7 parental” value is reported as 0.48 fold. In the case of B36, the “binding signal fold over 6E7 parental” value is reported as 0.42 fold. For B37, the “binding signal fold over 6E7 parental” value was 0.73 fold.

The binders below were run against T1, human TREM2 (assay: yeast-displayed Fab FACS, 1st screen 110 nM).
With B1 the “binding signal fold over 6E7 parental” value was 0.2 fold. In the case of B2, the “binding signal fold over 6E7 parental” value is reported as 0.76 fold. In the case of B3, the “binding signal fold over 6E7 parental” value is reported as 0.79 fold. For B4, the “binding signal fold over 6E7 parental” value was 0.19 fold. For B5, the “binding signal fold over 6E7 parental” value was 0.65 fold. With B6 the “binding signal fold over 6E7 parental” value was 0.55 fold. In the case of B7, the “binding signal fold over 6E7 parental” value is reported as 0.3 fold. For B8, the “binding signal fold over 6E7 parental” value was 0.34 fold. With B9 the “binding signal fold over 6E7 parental” value was 0.8 fold. In the case of B10, the “binding signal fold over 6E7 parental” value is reported as 0.84 fold. In the case of B11, the “binding signal fold over 6E7 parental” value is reported as 0.21 fold. With B12 the “binding signal fold over 6E7 parental” value was 0.59 fold. B13 was tested, and the “binding signal fold over 6E7 parental” value was 0.17 fold. B14 was tested, and the “binding signal fold over 6E7 parental” value was 0.45 fold. For B15, the “binding signal fold over 6E7 parental” value was 0.83 fold. For B16, the “binding signal fold over 6E7 parental” value was 0.23 fold. B17 was tested, and the “binding signal fold over 6E7 parental” value was 0.11 fold. With B18 the “binding signal fold over 6E7 parental” value was 0.79 fold. In the case of B19, the “binding signal fold over 6E7 parental” value is reported as 0.44 fold. For B20, the “binding signal fold over 6E7 parental” value was 0.28 fold. With B21 the “binding signal fold over 6E7 parental” value was 0.67 fold. For B22, the “binding signal fold over 6E7 parental” value was 0.4 fold. In the case of B23, the “binding signal fold over 6E7 parental” value is reported as 0.76 fold. In the case of B24, the “binding signal fold over 6E7 parental” value is reported as 0.82 fold. For B25, the “binding signal fold over 6E7 parental” value was 0.28 fold. B26 was tested, and the “binding signal fold over 6E7 parental” value was 0.23 fold. For B27, the “binding signal fold over 6E7 parental” value was 0.86 fold. For B28, the “binding signal fold over 6E7 parental” value was 0.2 fold. With B29 the “binding signal fold over 6E7 parental” value was 0.41 fold. For B30, the “binding signal fold over 6E7 parental” value was 0.42 fold. With B31 the “binding signal fold over 6E7 parental” value was 0.24 fold. B32 was tested, and the “binding signal fold over 6E7 parental” value was 0.43 fold. B33 was tested, and the “binding signal fold over 6E7 parental” value was 0.25 fold. B34 was tested, and the “binding signal fold over 6E7 parental” value was 0.18 fold. In the case of B35, the “binding signal fold over 6E7 parental” value is reported as 0.37 fold. For B36, the “binding signal fold over 6E7 parental” value was 0.79 fold. For B37, the “binding signal fold over 6E7 parental” value was 0.61 fold.
